Results: the supplement of paper PMC10724198
± gives the standard deviation of the averaged measurements.

tested on: Saccharomyces cerevisiae; assay: protein stability index of tFT-peptide fusion (C-terminal peptide) (PSI (0-1 scale)); higher = more stable (slower turnover); conditions: genetic background: wild type; temperature: 30 C
Protocol: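 Multiplexed protein stability (MPS) profiling in S. cerevisiae. Random 12-aa peptides (tFT-X12 library) are fused to the C-terminus of a sfGFP-mCherry tandem fluorescent timer, after mCherry and a GGGS linker. Cells are FACS-sorted into 8 mCherry/sfGFP bins and deep-sequenced. The protein stability index (PSI) is the read-weighted bin average, scaled from 0 (unstable) to 1 (stable). Only peptides with >10 reads are reported; cells were grown at 30 °C in SC-His with glucose.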
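Note: PSI is a weighted mean of sequencing reads over stability bins, variants kept only with over 10 reads, mCherry proximal and sfGFP distal, peptide attached via GGGS linker.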

Point of comparison: APPTSPLPIPSP, protein stability index 0.698 ± 0.017. Against it:
- AAARTGIATLRT — within error, 0.691 ± 0.01
- AAGCSSGQAQFG — within error, 0.727 ± 0.09
- AAGPGRWRWRGA — lower, 0.643 ± 0.0093
- AAGWLWVWGVEG — lower, 0.6429 ± 0.0017
- AAHRRRRSPPRP — lower, 0.5909 ± 0.0014
- AALHPLRISASV — within error, 0.646 ± 0.081
- AALIHLSFYSPS — within error, 0.67 ± 0.02
- AALTPSCPLHLP — within error, 0.713 ± 0.024
- AAMKQAIKGPVK — within error, 0.696 ± 0.019
- AAPRPYRPCYPN — within error, 0.664 ± 0.029
- AAVLSYLKHLFV — lower, 0.627 ± 0.022
- AAVSSDASVLRF — lower, 0.628 ± 0.027
- ACGAWAVVGLLG — within error, 0.679 ± 0.042
- ACGDRGGRCSEG — within error, 0.678 ± 0.089
- ACPGGPFALRSH — within error, 0.666 ± 0.029
- ACRVAVGRLFGS — within error, 0.717 ± 0.037
- ACSHFLEEFCFF — within error, 0.75 ± 0.046
- ACVSGSGLCLFV — within error, 0.694 ± 0.04
- ADAKVGVIWVAL — within error, 0.628 ± 0.08
- ADCRSRPMREGS — within error, 0.665 ± 0.036
- ADMPPEFKPALS — within error, 0.637 ± 0.073
- ADSGAHTISTVC — lower, 0.663 ± 0.01
- ADWTATTDPTST — higher, 0.748 ± 0.019
- AEAKRKSTYKRW — lower, 0.607 ± 0.026
- AEERATKNGARQ — within error, 0.67 ± 0.055
- AEGKGRCRRSCW — within error, 0.693 ± 0.072
- AERCVLEKSPRL — within error, 0.743 ± 0.064
- AFDKDLLGMMFS — within error, 0.692 ± 0.024
- AFDRVPLVFVST — lower, 0.564 ± 0.011
- AFFLDKASQLES — within error, 0.694 ± 0.05
- AGALGADRWGLK — higher, 0.741 ± 0.0085
- AGAWLVDAAVGV — lower, 0.612 ± 0.017
- AGAWVREVVGWG — within error, 0.707 ± 0.014
- AGERQIRISING — within error, 0.691 ± 0.031
- AGFGLRGWMIPP — within error, 0.68838 ± 0.00018
- AGGGLGGVGDVV — within error, 0.681 ± 0.052
- AGGRGNVGGVHV — within error, 0.679 ± 0.048
- AGGSTGMGARSR — within error, 0.688 ± 0.015
- AGGTRRRTGRRR — within error, 0.7019 ± 0.0024
- AGHTTVTNPLPQ — within error, 0.738 ± 0.079
- AGLACWGGVGER — within error, 0.693 ± 0.0079
- AGLLLGGRVFGW — within error, 0.708 ± 0.067
- AGLPEKARDRGS — within error, 0.638 ± 0.045
- AGLRRLRDFGSN — within error, 0.726 ± 0.037
- AGLSVRSILLSI — lower, 0.599 ± 0.039
- AGPPPIFGHHTQ — higher, 0.765 ± 0.036
- AGSRPCPGWPPG — within error, 0.691 ± 0.011
- AGVECADRVLWG — within error, 0.774 ± 0.066
- AGVGVSSSLLPL — within error, 0.664 ± 0.025
- AGWGWGARQGAL — within error, 0.659 ± 0.037
- AGWPWAGRSCWG — within error, 0.728 ± 0.044
- AHGRFTISLAGL — within error, 0.743 ± 0.057
- AHSSPMGYLPPF — within error, 0.693 ± 0.11
- AHYPGRAHLLCL — lower, 0.607 ± 0.02
- AIIERVEQIVTA — lower, 0.522 ± 0.052
- AISVCCFLCEFF — lower, 0.509 ± 0.023
- AIVRFAPWPVPR — within error, 0.701 ± 0.043
- AKKAEKQKKEKT — higher, 0.82 ± 0.019
- AKLFSEGLQMHH — within error, 0.729 ± 0.049
- AKNQSTGCKKKV — within error, 0.684 ± 0.043
- AKQVVGASWIVA — lower, 0.607 ± 0.044
- AKRRTNRLHCNA — lower, 0.6427 ± 0.0029
- AKVRGGKGLRLV — lower, 0.6687 ± 0.003
- ALAPSAFSSSPL — lower, 0.6645 ± 0.0022
- ALAQSGNVVLDR — within error, 0.751 ± 0.1
- ALASPAPLPRRD — higher, 0.7561 ± 0.0057
- ALATPLWDLMPP — lower, 0.606 ± 0.072
- ALCLDGCSLGEF — within error, 0.704 ± 0.017
- ALEAAWGGLGGS — within error, 0.695 ± 0.013
- ALFPRLVRPGFV — within error, 0.697 ± 0.036
- ALGPPAPGPCRA — lower, 0.654 ± 0.021
- ALGVGLDEILVM — lower, 0.556 ± 0.0093
- ALLMDENTRVLF — within error, 0.649 ± 0.051
- ALLPSAWPFRPP — lower, 0.611 ± 0.044
- ALLTPPPLPPTV — lower, 0.61 ± 0.061
- ALPLSPRTHRCS — lower, 0.503 ± 0.097
- ALRGWIRRRFPV — within error, 0.671 ± 0.03
- ALRPLLGRDHKV — within error, 0.68 ± 0.042
- ALRVAVIANMRV — lower, 0.5724 ± 0.0057
- ALRVGTGTVRFE — within error, 0.712 ± 0.051
- ALSCLVCLFGLL — lower, 0.545 ± 0.054
- ALSDPDTVRLYA — within error, 0.7107 ± 0.0032
- ALSPPPSLRLPF — higher, 0.7388 ± 0.0023
- ALSVSLFKDGLF — within error, 0.672 ± 0.063
- ALTFYYRGWSGL — lower, 0.619 ± 0.019
- ALWALSTHHVRK — higher, 0.73866 ± 0.00051
- ANSRVVSFRLSG — within error, 0.693 ± 0.047
- APAPPPSPPLPS — within error, 0.68 ± 0.0081
- APAPTLPALPPL — higher, 0.745 ± 0.026
- APARPCPLLSTS — lower, 0.612 ± 0.034
- APASSSAHTPFP — within error, 0.723 ± 0.019
- APAVPITPPPFP — within error, 0.696 ± 0.05
- APGPAAPGHGYL — within error, 0.744 ± 0.039
- APKVICPHLIRL — within error, 0.68 ± 0.013
- APLPPLYPPSPP — within error, 0.648 ± 0.065
- APLPPPPDPPLP — within error, 0.695 ± 0.025
- APLPPPRPPPSP — within error, 0.657 ± 0.081
- APPLPTHYCPHL — within error, 0.841 ± 0.23
- APPPAPPPPPQT — lower, 0.662 ± 0.0089
- APPPFRAPPGFR — higher, 0.845 ± 0.093
- APPPPPIPAPPP — within error, 0.714 ± 0.038
- APPPPPVPLPPP — within error, 0.722 ± 0.024
- APPPPRAPTPPP — within error, 0.696 ± 0.011
- APPPSPLPLPSL — within error, 0.689 ± 0.08
- APPPSPSPPPPL — within error, 0.712 ± 0.039
- APPRLTTLSMNL — within error, 0.696 ± 0.0073
- APPRPPTLHRPH — within error, 0.721 ± 0.0085
- APRHSSLHPAPS — within error, 0.6986 ± 0.0029
- APRPPSLSPSPP — within error, 0.681 ± 0.0076
- APRPSPRPTPPS — within error, 0.662 ± 0.078
- APRRAPSRRIRL — higher, 0.748 ± 0.016
- APSDRRRTPTPT — within error, 0.69 ± 0.013
- APSLPPVVQPLI — within error, 0.663 ± 0.023
- APSPLHFPPPPT — lower, 0.67 ± 0.0048
- APSPPSSPSAPP — within error, 0.643 ± 0.052
- APSVSKNSEVRK — within error, 0.681 ± 0.019
- APTPPPPSPLAP — within error, 0.73 ± 0.051
- AQDECVMVWYVG — lower, 0.651 ± 0.013
- AQDSFGFPPPPS — within error, 0.726 ± 0.018
- AQPIPTLYRAPP — within error, 0.729 ± 0.049
- AQRNSPIVLAVL — lower, 0.527 ± 0.0063
- ARAGQGEWGGGV — within error, 0.701 ± 0.033
- ARALCYSFPPAL — within error, 0.77 ± 0.1
- ARGALPHHVSCV — within error, 0.691 ± 0.11
- ARGKYKKLKIKE — higher, 0.733 ± 0.018
- ARIQECLTKASK — within error, 0.607 ± 0.095
- ARLCLVRTKRHS — within error, 0.684 ± 0.044
- ARLGNPHFKIFS — within error, 0.684 ± 0.089
- ARLPCVVFLLDE — within error, 0.666 ± 0.036
- ARPASGCFCLFR — within error, 0.655 ± 0.071
- ARRPGGGRSGGN — within error, 0.672 ± 0.039
- ARSSILRCRGYR — within error, 0.747 ± 0.095
- ASAPPHVSAPSP — lower, 0.654 ± 0.012
- ASGASEVGACAG — within error, 0.685 ± 0.033
- ASGGIIRWGLWM — within error, 0.694 ± 0.029
- ASGIYSRFSTSS — lower, 0.624 ± 0.052
- ASLPPLSPPSSL — within error, 0.71 ± 0.045
- ASMRIVWWFGML — lower, 0.495 ± 0.047
- ASPAWYARGISR — within error, 0.733 ± 0.033
- ASPLFFHPSAPH — within error, 0.6891 ± 0.0046
- ASPLSIPPLSPS — within error, 0.633 ± 0.073
- ASPPAYCPPPPP — within error, 0.666 ± 0.039
- ASPPPPRISAWL — within error, 0.7159 ± 0.0036
- ASPSYLFFLLPC — lower, 0.5788 ± 0.0018
- ASQSFSFITFTY — within error, 0.645 ± 0.056
- ASRPAPPAPAFL — lower, 0.675 ± 0.005
- ASRWVLLVGGGV — within error, 0.652 ± 0.056
- ASSDRWVVYLYG — within error, 0.685 ± 0.0083
- ASSLLPIPPPPF — within error, 0.706 ± 0.012
- ASSLPIWLVWWL — lower, 0.536 ± 0.02
- ASSSLLRCFSRF — within error, 0.648 ± 0.062
- ASTRPFYVSSFG — within error, 0.741 ± 0.13
- ATFSVMRGQHGQ — within error, 0.686 ± 0.0057
- ATGFSLLDFSMP — within error, 0.679 ± 0.069
